For one substance, cytotoxic activity (ADCC activity) against A549 cells expressing EGFR, LDH assay, 4 hr co-culture in the presence of Cetuximab (fold against control iNK cells) results are on record in patent publication US20250041418A1.

The target in this experiment is anti-EGFR antibody (Cetuximab). The experiment in a line: cell-based or functional assay.

As to “CD16a, exogenously expressed on iNK cells”, the cytotoxic activity (ADCC activity) against A549 cells expressing EGFR, LDH assay, 4 hr co-culture in the presence of Cetuximab (fold against control iNK cells) is 2.
